# Source: article PMC6430559, “Antigenicity and Immunogenicity of Differentially Glycosylated Hepatitis C Virus E2 Envelope Proteins Expressed in Mammalian and Insect Cells” (Journal of Virology, 2019)
# B1: Human monoclonal antibody (HMAb) HC33.1, specific for antigenic domain E of HCV E2 (antibody, V domains shown)
# VH: EVQLVESGGGLVQPGGSLRLSCVASGLTFTNFAVSWVRQAPGKGLEWVSAISSSDGSTYYSDSVKGRFTISRDSSMNTLYLQMDSLRVEDTAVYFCARAVVSSDITYTYWSKYFDYWGQGTLVTVSS
# VL: QSVVTQPPSVSAAPGQKVTISCSGGSFNIGNNYVSWYQQLPGTAPKLLIYDNDNRPSGIPDRFSGSKSGTSATLDITGLQTGDEADYYCGTWDSSLNVVVFGGGTKLTVL
# B2: Human CD81 large extracellular loop (CD81-LEL; CD81 residues 113 to 201) (domain or fragment, UniProt P60033 113-201, looked up)
# chain: FVNKDQIAKDVKQFYDQALQQAVVDDDANNAKAVVKTFHETLDCCGSSTLTALTTSVLKNNLCPSGSNIISNLFKEDCHQKIDDLFSGK
# notes: human CD81 large extracellular loop, residues 113 to 201; Cloned into the vector pHLsec (Addgene plasmid #99845 is the vector); The C-terminal His6 tag was stripped with carboxypeptidase A-agarose before biolayer interferometry; also called recombinant CD81; source: FreeStyle HEK293-F cells, transfected, secreted; purified from culture supernatant (HiTrap chelating HP Ni2+-NTA, Superdex 75); not …
# What was measured:
# Test in all cases: BLI; Octet RED96; His6-tagged sE2 (5 ug/ml, 600 s) loaded on Ni2+-NTA biosensors and stabilised with EDC/NHS, quenched with 1 M ethanolamine pH 8.0; association 300 s, dissociation 300 s; 2-fold dilution series of CD81 or HMAb (IgG format); steady-state analysis by the legend, global fit by the methods; values may reflect bivalent IgG binding
# [1] = target: HEK293-derived soluble HCV E2 glycoprotein (sE2), genotype 1a H77c, residues 384 to 661, monomeric (hepatitis C virus genotype 1a, strain H77c) (UniProt P27958)
# [2] = target: Sf9-derived soluble HCV E2 glycoprotein (sE2), genotype 1a H77c, residues 384 to 661, monomeric (hepatitis C virus genotype 1a, strain H77c) (UniProt P27958)
# [3] = target: T1, HEK293-derived soluble HCV E2 glycoprotein (sE2), genotype 1a H77c, residues 384 to 661, monomeric (hepatitis C virus genotype 1a, strain …, UniProt P27958 384-661, N-glycans at positions 417, 423, 430, 448, 476, 532, 540, 556, 576, 623 and 645; mostly complex- and high-mannose-type glycans); conditions: both partners purified
# T1 construct: HCV envelope glycoprotein E2 lacking the C-terminal transmembrane anchor, amino acids 384 to 661 of the strain 1a HCV H77c polyprotein; also called HEK293-derived sE2; HEK293 sE2; source: FreeStyle 293-F (HEK293-F) cells, transfected, secreted; purified from culture supernatant (HisTrap Ni2+-NTA, Superdex 200; monomer peak); not shown: His6, C-terminal, kept
# [4] = target: T2, Sf9-derived soluble HCV E2 glycoprotein (sE2), genotype 1a H77c, residues 384 to 661, monomeric (hepatitis C virus genotype 1a, strain …, UniProt P27958 384-661, N-glycans at positions 417, 423, 430, 448, 476, 532, 540, 556, 576, 623 and 645; mainly paucimannose-type glycans, with or without one or two core fucose residues); conditions: both partners purified
# T2 construct: HCV envelope glycoprotein E2 lacking the C-terminal transmembrane anchor, amino acids 384 to 661 of the strain 1a HCV H77c polyprotein; also called Sf9-derived sE2; Sf9 sE2; source: Sf9 cells infected with recombinant baculovirus, secreted; purified from culture supernatant (HisTrap Ni2+-NTA, Superdex 200; monomer peak); not shown: His6, C-terminal, kept
# T2 sequence (P27958 384-661): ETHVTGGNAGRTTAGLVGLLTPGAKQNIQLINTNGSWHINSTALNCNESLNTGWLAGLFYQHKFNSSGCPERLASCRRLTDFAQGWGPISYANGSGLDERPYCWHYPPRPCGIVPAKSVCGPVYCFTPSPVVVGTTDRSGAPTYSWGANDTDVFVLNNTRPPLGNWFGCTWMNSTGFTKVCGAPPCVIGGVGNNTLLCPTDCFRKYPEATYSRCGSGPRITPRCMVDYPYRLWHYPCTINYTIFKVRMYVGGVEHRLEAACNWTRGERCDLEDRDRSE
# HEK293-derived soluble HCV E2 glycoprotein (sE2), genotype 1a H77c, residues 384 to 661, monomeric (hepatitis C virus genotype 1a, strain H77c), sequence (P27958 384-661): as above
# Sf9-derived soluble HCV E2 glycoprotein (sE2), genotype 1a H77c, residues 384 to 661, monomeric (hepatitis C virus genotype 1a, strain H77c), sequence (P27958 384-661): as above
# T1 sequence (P27958 384-661): as above
Binder,Kd [1] [nM],Kd [2] [nM],Kd [3] [nM],Kd [4] [nM]
B1,50,47,,
B2,,,510 ± 22,440 ± 38
